# T1: z-VAD-fmk (benzyloxycarbonyl-Val-Ala-Asp-fluoromethylketone)
# T1 chain: VAD
# B1: caspase-2 (protein)
# chain 1: GPVCLQVKPCTPEFYQTHFQLAYRLQSRPRGLALVLSNVHFTGEKELEFRSGGDVDHSTLVTLFKLLGYDVHVLCDQTAQEMQEKLQNFAQLPAHRVTDSCIVALLSHGVEGAIYGVDGKLLQLQEVFQLFDNANCPSLQNKPKMFFIQACRGDET
# chain 2: GKNHAGSPGCEESDAGKEKLPKMRLPTRSDMICGYACLKGTAAMRNTKRGSWYIEALAQVFSERACDMHVADMLVKVNALIKDREGYAPGTEFHRCKEMSEYCSTLCRHLYLFPGHPPT
# Legend:
# [1] = biological target: T1, z-VAD-fmk …
# [2] = biological target: human wild-type tau (tauWT), full-length, P10636
# Chain of human wild-type tau (tauWT), full-length, P10636 (P10636 other isoform, or with tags, fused parts or gaps): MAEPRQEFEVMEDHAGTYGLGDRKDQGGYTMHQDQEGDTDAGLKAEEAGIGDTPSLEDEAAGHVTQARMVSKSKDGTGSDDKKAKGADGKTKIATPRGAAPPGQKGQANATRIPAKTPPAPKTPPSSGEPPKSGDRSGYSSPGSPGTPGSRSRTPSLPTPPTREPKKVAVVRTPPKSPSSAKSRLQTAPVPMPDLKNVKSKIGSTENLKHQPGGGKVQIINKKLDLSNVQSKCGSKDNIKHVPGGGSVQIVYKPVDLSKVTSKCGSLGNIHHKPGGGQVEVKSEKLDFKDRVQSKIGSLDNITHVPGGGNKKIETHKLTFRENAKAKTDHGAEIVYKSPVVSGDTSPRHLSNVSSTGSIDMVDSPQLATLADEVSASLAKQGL
# [3] = biological target: human tauP301L, full-length (from Tg4510 / rTg4510 mouse brain), P10636
# Chain of human tauP301L, full-length (from Tg4510 / rTg4510 mouse brain), P10636 (P10636 whole entry, looked up): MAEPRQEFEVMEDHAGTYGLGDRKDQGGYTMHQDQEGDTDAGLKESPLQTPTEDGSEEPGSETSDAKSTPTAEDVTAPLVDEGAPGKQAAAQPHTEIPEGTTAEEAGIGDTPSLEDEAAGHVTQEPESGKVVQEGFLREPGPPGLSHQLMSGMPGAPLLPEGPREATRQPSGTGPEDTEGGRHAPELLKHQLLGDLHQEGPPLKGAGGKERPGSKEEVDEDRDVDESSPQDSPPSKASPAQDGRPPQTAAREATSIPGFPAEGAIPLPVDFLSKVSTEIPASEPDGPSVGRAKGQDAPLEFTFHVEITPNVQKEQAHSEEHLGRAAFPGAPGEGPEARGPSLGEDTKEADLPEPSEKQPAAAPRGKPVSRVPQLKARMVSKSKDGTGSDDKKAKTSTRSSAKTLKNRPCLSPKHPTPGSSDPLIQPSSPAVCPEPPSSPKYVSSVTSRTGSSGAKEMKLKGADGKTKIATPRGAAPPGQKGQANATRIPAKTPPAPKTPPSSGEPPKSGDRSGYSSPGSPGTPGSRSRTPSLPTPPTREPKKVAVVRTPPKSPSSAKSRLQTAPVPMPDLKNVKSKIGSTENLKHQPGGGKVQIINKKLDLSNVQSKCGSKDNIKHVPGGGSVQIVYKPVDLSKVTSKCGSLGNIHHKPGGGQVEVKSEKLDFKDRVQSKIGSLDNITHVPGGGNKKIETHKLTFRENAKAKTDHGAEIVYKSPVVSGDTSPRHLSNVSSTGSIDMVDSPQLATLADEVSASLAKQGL
# Chain of tauD314G, P10636 (P10636 whole entry, looked up): as above
# Chain of tauD314E, P10636 (P10636 whole entry, looked up): as above
protein,measurement,setting,value
B1,35 kDa fragment after incubation with recombinant caspase-2,"tauD314E, P10636",generated a 35 kDa fragment only in the wild-type tau reaction (tauD314E: none)
same,"cleavage of tau by the caspase, Tau-13 immunoblot",[1],"50 µM z-VAD-fmk ... (+inhibitor), a general caspase inhibitor, blocked all cleavage"
same,"cleavage of the FITC peptide substrate, LabChip",[1],Caspase inhibitor blocks caspase-2-mediated cleavage of Asp314 peptide substrate
same,35 kDa fragment after incubation with recombinant caspase-2,"tauD314G, P10636",generated a 35 kDa fragment only in the wild-type tau reaction (tauD314G: none)
same,35 kDa fragment after incubation with recombinant caspase-2,[2],generated a 35 kDa fragment only in the wild-type tau reaction that comigrates with tau truncation mutant ΔC314
same,35 kDa fragment on Tau-13 immunoblot after incubation with the caspase,[2],a 35 kDa fragment generated by co-incubating caspase-2 with full-length tau proteins purified from ... (B) brain lysates of rTg21221 mice expressing human wild-type tau (tauWT) ... or (C) synthetic human tauWT
same,35 kDa fragment on Tau-13 immunoblot after incubation with the caspase,[3],a 35 kDa fragment generated by co-incubating caspase-2 with full-length tau proteins purified from (A) brain lysates of Tg4510 mice expressing human tauP301L
